# Measured values published in US10344330B2, “Glatiramer acetate response biomarker mRNA potency assay” (Mylan Inc., priority 2013, dated 2019).
# B1: MBP: myelin basic protein, a negative control (protein, UniProt P02686 1-304, looked up)
# Myelin basic protein: MGNHAGKRELNAEKASTNSETNRGESEKKRNLGELSRTTSEDNEVFGEADANQNNGTSSQDTAVTDSKRTADPKNAWQDAHPADPGSRPHLIRLFSRDAPGREDNTFKDRPSESDELQTIQEDSAATSESLDVMASQKRPSQRHGSKYLATASTMDHARHGFLPRHRDTGILDSIGRFFGGDRGAPKRGSGKDSHHPARTAHYGSLPQKSHGRTQDENPVVHFFKNIVTPRTPPPSQGKGRGLSLSRFSWGAEGQRPGFGYGGRASDYKSAHKGFKGVDAQGTLSKIFKLGGRDSRSGSPMARR
# Key:
# Type in all cases: cell-based
# [1] = system: mouse IL-5 mRNA in primary LN cells; experiment: Mouse IL-5 mRNA in LN cells of immunized SJL/J mice stimulated with Copaxone and GMA lots, normalized to Actβ or GAPDH (Example V)
# Protocol: A real-time polymerase chain reaction method was used to measure the expression of cytokine mRNA in GA-stimulated LN cells from GA-immunized SJL/J mice. Normalization of expression with two different housekeeping genes, GAPDH and β-actin, was tested.
# Each group consisted of six female SJL/J mice immunized by injection in all four footpads with a total dose of 250 μg of one lot of GA, or mannitol and no GA. Three Copaxone batches and three GMA batches were used to immunize the mice. CFA was included in both GA and mannitol immunizations. Ten days following immunization, LN cell samples isolated from the immunized mice were each stimulated with a concentration of a Copaxone lot and a GMA lot. A positive control of 2.5 μg/mL ConA treated LN cells and a negative control of 10 μg/mL MBP treated cells were included in each group.
# In the initial run, a lack of reproducibility was observed when cytokine mRNA levels were normalized to GAPDH mRNA levels. Therefore, the Q-PCR analysis was repeated on the samples, measuring levels of IL-2, IL-4, IL-5, and IL-13, using both GAPDH and β-actin as reference gene.
# The RNA isolation and analysis procedures were similar to those described in Example IV. The expression levels of mouse IL-2, IL-4, IL-5 and IL-13 mRNA observed are summarized below in Tables 29 to 36. As shown by the data in Tables 30, 32, 34 and 36, a lack of reproducibility in the findings again was observed when cytokine mRNA levels were normalized to GAPDH mRNA for all cytokines except IL-13.
# [2] = system: mouse TNF-α mRNA in primary LN cells; experiment: Validation: mouse TNF-α mRNA by real-time PCR in LN cells of GA-immunized SJL/J mice (Example IV); settings: for TNF-α mRNA Fold Change: normalized to GAPDH
# Protocol: (§1) Three experiments were conducted using one batch of GA (Mylan GMA). The primary LN cells were stimulated by incubation with 6 concentrations (0.3 to 20 μg/mL) of the GA for 6 hours at 37° C. Total RNA was isolated from LN cells stimulated with GA or controls. cDNA was synthesized from the RNA and the mRNA levels of seven mouse cytokines, IL-2, IL-4, IL-5, IL-10, IL-13, interferon (IFN)-γ and tumor necrosis factor (TNF)-α, were quantitatively measured by a real-time PCR method.
# (§2) Female SJL/J mice at 8-9 weeks of age were immunized by injection into four footpads using a 1 mL syringe with a 27-G, ½-inch needle. Each mouse received a total injection volume of 0.1 mL of GMA emulsified in CFA (about 10 μL into each of the front footpads and 40 μL into each of the hind footpads). Animals were immunized on Day 0. After injection, animals were placed back in their cages and housed ≤6 animals per cage.
# (§3) Immunized animals were sacrificed by cervical dislocation on Day 10 following immunization. […] After centrifugation at about 200×g for 10 minutes at 4° C., the cell pellet was re-suspended in 40 mL of DCCM-1 medium for cell counting. A Trypan blue exclusion method was used to determine the cell density of viable cells in the suspension. After cell counting, the LN cells were suspended in enriched DCCM-1 medium at density of 7.5×10^6 cells/mL. LN cells (0.12 mL) were plated into each well of 96-well tissue culture plates.
# (§4) Dilutions of GA (Mylan GMA) were prepared using enriched DCCM-1 medium as the diluent. GA dilutions (0.12 mL) were added in the assigned wells of 96-well tissue culture plates. The same volume of LN cells (0.12 mL) isolated from immunized animals was added to the assigned wells. A positive control and a negative control were always performed in the same assay by treating LN cells with 2.5 μg/mL ConA and 10 μg/mL MBP, respectively. The LN cells with mock stimulation protocols (enriched DCCM-1 medium) were used to monitor the background mRNA level of a cytokine. The plates were incubated at 37° C. in a humidified 5% CO2 incubator for 6 hr.
# (§5) At the end of incubation time, culture medium from stimulated cells was removed by aspiration and the cells were lysed using Qiagen or Promega lysis buffer. The lysate was transferred to an RNeasy Mini column (Qiagen) or wells of the SV 96 Binding Plate (Promega) for RNA isolation and cDNA synthesis. All tested samples were run in triplicate.
# (§6) The SV 96 Total RNA Isolation System (Promega; Cat. No. Z3505) was used for total RNA isolation. Assay procedures were carried out according to each manufacturer's protocol. RNA samples were stored at −70° C. until use. […] The assay procedure was carried out according to the manufacturer's protocol.
# (§7) The plate was centrifuged at 2000 rpm for 2 minutes at 4° C. to spin down the contents and eliminate air bubbles. Samples were prepared and run in a 96-well plate using a Life Technologies Real-Time PCR system (previously Applied Biosystems; Model No. 7500) according to the manufacturer's recommendation. The mix for the reference gene was prepared in the same way using the reference gene primer.
# (§8) A relative quantitation method was used to analyze changes in mIL-2, mIL-4, mIL-5, mIL-10, mIL-13, mIFN-γ and TNF-α expression in GA treated samples relative to the untreated control (Enriched DCCM-1 treated) samples using the following program:
# (§9) Levels of mouse cytokine amplicons were normalized to an internal probe level (GAPDH) from the same samples. The following equations were used to calculate the relative increase in response to GA stimulation compared to the control sample (Enriched DCCM1 sample): […]
# [3] = system: mouse IL-10 mRNA in primary LN cells; experiment: Validation: mouse IL-10 mRNA by real-time PCR in LN cells of GA-immunized SJL/J mice (Example IV); settings: for IL-10 mRNA Fold Change: normalized to GAPDH
# Protocol: as §1, §2, §3, §4, §5, §6, §7, §8, §9
# [4] = SJL/J, MBP 10 μg/mL, all PCR runs
molecule,measurement,setting,value
"Concanavalin A [ConA, reference compound]",IL-5 mRNA Fold Change,"[1]; Group 3 (mice immunized with GA-M2 Mylan GMA), 2.5 μg/mL, normalized to Actβ",19.1 fold
same,IL-5 mRNA Fold Change,"[1]; Group 4 (mice immunized with GA-C2 Copaxone), 2.5 μg/mL, normalized to Actβ",27.8 fold
same,IL-5 mRNA Fold Change,"[1]; Group ID 3, 2.5 μg/mL, normalized to GAPDH",21.1 fold
same,IL-5 mRNA Fold Change,"[1]; Group ID 4, 2.5 μg/mL, normalized to GAPDH",59.4 fold
same,TNF-α mRNA Fold Change,"[2]; Experiment 1, 2.5 μg/mL",1.9 fold
same,TNF-α mRNA Fold Change,"[2]; Experiment 2, 2.5 μg/mL",0.8 fold
same,TNF-α mRNA Fold Change,"[2]; Experiment 3, 2.5 μg/mL",1.6 fold
same,IL-10 mRNA Fold Change,"[3]; Experiment 1, 2.5 μg/mL",1.2 fold
same,IL-10 mRNA Fold Change,"[3]; Experiment 2, 2.5 μg/mL",0.5 fold
same,IL-10 mRNA Fold Change,"[3]; Experiment 3, 2.5 μg/mL",1.6 fold
B1,IL-5 mRNA Fold Change,"[1]; Group 3 (mice immunized with GA-M2 Mylan GMA), 10 μg/mL, normalized to Actβ",0.6 fold
same,IL-5 mRNA Fold Change,"[1]; Group 4 (mice immunized with GA-C2 Copaxone), 10 μg/mL, normalized to Actβ",1.1 fold
same,IL-5 mRNA Fold Change,"[1]; Group ID 3, 10 μg/mL, normalized to GAPDH",0.6 fold
same,IL-5 mRNA Fold Change,"[1]; Group ID 4, 10 μg/mL, normalized to GAPDH",2.3 fold
same,TNF-α mRNA Fold Change,"[2]; Experiment 1, 10 μg/mL",1.0 fold
same,TNF-α mRNA Fold Change,"[2]; Experiment 2, 10 μg/mL",1.1 fold
same,TNF-α mRNA Fold Change,"[2]; Experiment 3, 10 μg/mL",1.1 fold
same,TNF-α mRNA expression level in response to MBP treatment,[2]; [4],≤ 2 fold
same,IL-10 mRNA Fold Change,"[3]; Experiment 1, 10 μg/mL",1.1 fold
same,IL-10 mRNA Fold Change,"[3]; Experiment 2, 10 μg/mL",0.7 fold
same,IL-10 mRNA Fold Change,"[3]; Experiment 3, 10 μg/mL",1.0 fold
same,IL-10 mRNA expression level in response to MBP treatment,[3]; [4],≤ 2 fold
